Test results published in patent US8445240B2, “Termite enzymes and uses thereof for in vitro conversion of lignin-containing materials to fermentable products” (University of Florida Research Foundation, Inc., priority 2009, dated 2013).

Legend:
[1] = Glucose release from pine sawdust by recombinant enzymes and mixtures; assay type: biochemical; conditions: 2% w/v, 18 hrs, 37° C., pH 7
Method: All reactions were performed in 0.1 M sodium acetate buffer containing 10 mM calcium chloride (pH 7). The two feedstock substrates were pine sawdust (=lignin+cellulose+hemicellulose) and beechwood xylan (=lignin+hemicellulose). Feedstocks were tested at 2% w/v (10 mg in 0.5 mL buffer). Reactions were run for 18 hrs at 37° C. with shaking at 220 rpm in vented 1.5 mL plastic tubes.
Protein volumes used per assay were 10 μL of each of the Cell-1, β-glucosidase, and Laccase 6 recombinant protein preparations. These loading volumes provided 8.5, 7.9 and 2.0 μg of each protein, respectively, per reaction. The storage buffer for Cell-1 and β-glucosidase was 0.1 M sodium acetate, 0.15 M sodium chloride, and 0.5 M calcium chloride (pH 5.8). The storage buffer for Laccase 6 was 0.1M boric acid, phosphoric acid, and acetic acid (pH 7.0).
Reactions were stopped after 18 hours by the addition of 10 μL of 0.2 Methylene-diamine tetra-acetic acid and centrifuged for 5 min at 16,000×g. Glucose detection was performed in triplicate on 125 μL aliquots of each reaction supernatant. The entire experiment was replicated three times. Glucose release was measured using the Autokit Glucose reagent kit (Wako Chemical, Richmond, Va.) at a volume of 125 μL per determination. Glucose was quantified based on absorbance at 505 nm relative to glucose standard curves. Standard curves were prepared in eight serial dilutions downward from 0.6 mM in sodium acetate-calcium chloride reaction buffer.

[2] = Characterisation of recombinant RfLacA and RfLacB isoforms; assay type: biochemical
[3] = Lignin alkali metabolism by RfLacA, HPLC analysis; assay type: biochemical; conditions: 1% w/v, pH 7.5, 16 hr, 32° C.
[4] = Preliminary stability test of purified recombinant Cell-1; assay type: physicochemical; conditions: incubation at 65° C. or 26° C. for 65 hr
Source text: An approximately 48 kDa band was present in baculovirus-infected larvae, but absent from uninfected and blank virus controls. Following purification and concentration the recombinant Cell-1 protein migrated as a single band at approximately 48 kDa. […] In addition to endoglucanase activity (the expected activity for Cell-1), exoglucanase and β-glucosidase activities were also investigated using the substrates pNPC and pNPG. All three activities were present in both uninfected and blank-virus-infected T. ni larvae, with exoglucanase and β-glucosidase activity being the strongest. However, only endoglucanase activity remained for purified Cell-1. In agreement with SDS-PAGE results, it was enriched at least 10-fold relative to clarified supernatants of infected larvae.

[5] = Colorimetric β-1,4-endoglucanase assay of Cell-1 on CMC; assay type: biochemical; conditions: BEVS-expressed; 100 mM sodium acetate pH 6.5, 25° C.
Method: Colorimetric β-1,4-endoglucanase enzyme assays: Six total substrates were tested: CMC (carboxymethyl cellulose), pNPG (p-nitrophenyl-beta-D-glucopyranoside), pNPC2 (p-nitrophenyl-beta-D-cellobioside), pNPC3 (p-nitrophenyl-beta-D-cellotrioside), pNPC4 (p-nitrophenyl-beta-D-cellotetraoside), and pNPC5 (p-nitrophenyl-beta-D-cellopentaoside). All assay methods were carried out under optimal conditions (Zhou et al., (2007) Gene 395:29-39).
(FIG. 7). For subsequent characterizations, the 1.5% CMC concentration was used. pH studies were performed by dissolving 1.5% CMC in two different buffer systems: 100 mM sodium acetate (pH 3-6.5) and 100 mM sodium phosphate (pH 7-10.5), as shown in FIG. 8. […] Temperature-cofactor studies were performed using 1.5% CMC dissolved in 100 mM sodium phosphate (pH 7) alone, plus 4 mM EDTA (final concentration), or plus 10 mM calcium chloride (final concentration). Pre-incubations took place for 0-5 days at 25° C. or 0-60 min at 60° C. or 70° C.; reactions were terminated by the combination of adding stop solution and boiling for 10 min, and then assays were read at 25° C. (FIG. 9).

[6] = E. coli-expressed Cell-1 against exoglucanase and β-glucosidase substrates; assay type: biochemical; conditions: Ni-purified active fractions
Method: Soluble fractions obtained after 19° C. IPTG induction were subjected to Ni-chromatography for purification. The His-tagged Cell-1 was retained on Ni columns and eluted in a single peak of CMC activity after the introduction of imidazole elution buffer.

glucose release from pine sawdust (in words) [1] | glucose release from pine sawdust [1] [pmol/min] | Molecule | oxidation of ABTS and syringaldazine [2] | action on lignin alkali [3] | protein stability in purified form [4] | Km against CMC [5] [% w/v] | Vmax against CMC [5] [pmol/min/mg] | activity against pNPC and pNPG [6]
No glucose release was detectable | – | RfLacA: recombinant R. flavipes gut laccase isoform 1, clone Lac6, SEQ ID NO.: 8 (protein, Reticulitermes flavipes; amino acid sequence Laccase Lacc-6) LIRLTIGQAVVSTQSTREAVVSTQSTRDTALSVYRSDAYIMLPCVLLACAIGVASATSVLLNSYLQPNDDIDRNTYLLNAKSNNCARICNGTEAPKICYYQWTIENYVTLSEACDNCPLNVTACYNAQCITADGYERSILSVNRKLPGPSIEVCLRDRVIVDITNNMAGRTTSIHWHGVFQKGSQYMDGVPMVTQCTIHEGDTFRYDFIANNEGTHFWHSHDGLQKLDGVTGNLVVRVPKNFDPNGQLYDFDLPEHKIFISDWLHLSADDHFPGLRATNPGQDANSFLINGRGRTLIGTQSTNTPYAQINVQWGRRYRLRIVGSLCTVCPTQLTIDGHKITVIATDGNSVAPARVDSLIIYSGERYDVVLEATNTEGSYWIHLKGLATCVGSRVYQLGVLQYENTTTNKLHALTPDPGYDGFPQPASYRVLNPENASCSIGSTGLCVTQLANSDPVPRDILTQLPDINYLLQFGFETFDSRSFFKAYDRYFVSPFLELLSSTVNNISFVSPPSPLLSQRGDVPDDILCPTGADGLPQCPGGNSYCTCVHVIKIKLGALVQIILSDQSPKSDLNHPFHIHGHAFYVLGMGQYAAGQTAQDLLNSLKSNVSSVSPAPVLKDTVAVPSGGYAIIKFRPKNPGYWFLHCHFLYHVATGMSVVLQVGETSDYPPTPDGFPKCGSFTPPVNTN | unable to oxidize | evidence of RfLacA action on lignin | – | – | – | –
– | 3.70 | Cell-1: host-derived β-1,4-endoglucanase (GHF9) from Reticulitermes flavipes, SEQ ID NO.: 2; recombinant, BEVS or E. coli expressed (protein, Reticulitermes flavipes; amino acid sequence Beta-1,4-endoglucanase (Cell-1), recombinant, BEVS or E. coli expressed) MKVFVCLLSALALCQAAYDYKTVLSNSLLFYEAQRSGKLPSDQKVTWRKDSALNDKGQKGEDLTGGYYDAGDFVKFGFPMAYTVTVLAWGVIDYESAYSAAGALDSGRKALKYGTDYFLKAHTAANEFYGQVGQGDVDHAYWGRPEDMTMSRPAYKIDTSKPGSDLAAETAAALAATAIAYKSADATYSNNLITHAKQLFDFANNYRGKYSDSITDAKNFYASGDYKDELVWAAAWLYRATNDNTYLTKAESLYNEFGLGNWNGAFNWDNKISGVQVLLAKLTSKQAYKDKVQGYVDYLISSQKKTPKGLVYIDQWGTLRHAANSALIALQAADLGINAATYRAYAKKQIDYALGDGGRSYVVGFGTNPPVRPHHRSSSCPDAPAVCDWNTYNSAGPNAHVLTGALVGGPDSNDSYTDARSDYISNEVATDYNAGFQSAVAGLLKAGV | – | – | no protein degradation | 1.496 | 1.469 | no activity
